In patent US20260242478A1 (published 2026):

These binders were tested against Anti-CD28 Fab (SEQ ID NOs: 696, 697) (assay: phage binding ELISA; biotinylated Fab on neutravidin plate, bound phage detected with anti-M13-HRP).
Target sequence in this assay (VH, as listed by the source, chain 1 of 2): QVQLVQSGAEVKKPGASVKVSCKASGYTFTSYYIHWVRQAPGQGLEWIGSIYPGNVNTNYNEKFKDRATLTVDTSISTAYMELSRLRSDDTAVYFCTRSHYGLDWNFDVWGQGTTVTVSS
Target sequence in this assay (VL, as listed by the source, chain 2 of 2): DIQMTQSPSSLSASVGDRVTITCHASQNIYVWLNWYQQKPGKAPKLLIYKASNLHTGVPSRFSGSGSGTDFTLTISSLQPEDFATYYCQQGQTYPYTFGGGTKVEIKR
Description: (§1) Clonal phage were harvested as crude supematants and screened via standard ELISAs. […] Prior to the addition of clonal phage, wells were incubated with blocking buffer and CD28 antigen or blocking buffer alone. Without washing or aspirating, clonal phage supematants were then added to the wells and incubated for a short time. Wells were then washed followed by detection of bound phage using a horse radish conjugated anti-M13 antibody.

Binder	Anti-CD28 Fab signal
SCAAGATWAWPACL [Phage-1598]	1.36
TCSAGAEYTWPLCF [Phage-1591]	1.4
TCSAGANWVWPLCL [Phage-1595]	1.38
SCAAGAAWGWPACF [Phage-1592]	1.39
TCSAGAAYEWPECF [Phage-1602]	1.36
TCSAGAGYPWPTCL [Phage-1600]	1.36
TCSAGALWEWPMCF [Phage-1603]	1.35
SCAAGATYGWPECF [Phage-1597]	1.36
SCSAFFHFHWPACL [Phage-1594]	1.38
TCAAGATWLWPVCL [Phage-1593]	1.39
TCSAGAAWTWPLCF [Phage-1601]	1.36
LCSAGAMWEWPLCL [Phage-1599]	1.36
TCSAGAHWVWPYCL [Phage-1596]	1.37

Each binder was assayed against T1, Anti-CD28 Fab (SEQ ID NOs: 696, 697) (assay: phage binding ELISA; clonal phage on biotinylated anti-CD28 Fab captured on neutravidin, anti-M13-HRP detection).
T1 construct: Biotinylated and captured on neutravidin coated plates in the phage ELISA
T1 sequence (VH, as listed by the source, chain 1 of 2): as the sequence (VH, as listed by the source, chain 1 of 2) above
T1 sequence (VL, as listed by the source, chain 2 of 2): as the sequence (VL, as listed by the source, chain 2 of 2) above
Description: as §1

Binder	Anti-CD28 Fab (SEQ ID NOs: 696, 697) signal
SCAAGATYEWPRCL (peptide, not shown: large carriers) [Phage-1515]	1.6
TCAAGAHWIWPWCE (peptide, not shown: large carriers) [Phage-1513]	1.61
TCAAGAGWQWPMCF (peptide, not shown: large carriers) [Phage-1514]	1.6
GCAAGANYPWPLCL (peptide, not shown: large carriers) [Phage-1516]	1.59
TCAAGATWPWPSCL (peptide, not shown: large carriers) [Phage-1512]	1.61
TCAAGAYYAWPMCL (peptide, not shown: large carriers) [Phage-1517]	1.59

These binders were tested against T2, Anti-CD28 Fab (SEQ ID NOs: 696, 697) (assay: phage binding ELISA; clonal phage on plate-captured biotinylated anti-CD28 Fab, anti-M13 HRP detection).
T2 construct: In the phage ELISA the Fab was biotinylated and captured on neutravidin coated plates
T2 sequence (VH, as listed by the source, chain 1 of 2): as the sequence (VH, as listed by the source, chain 1 of 2) above
T2 sequence (VL, as listed by the source, chain 2 of 2): as the sequence (VL, as listed by the source, chain 2 of 2) above
Description: as §1

Binder	Anti-CD28 Fab (SEQ ID NOs: 696, 697) signal
SCAAGAMWPWPVCV [Phage-1522 (Peptide-92 library sequence, SEQ ID NO: 1818)]	1.59
SCAAGATYEWPICL [Phage-1521 (Peptide-92 library sequence, SEQ ID NO: 1817)]	1.59
TCSAGFSYKWPWCL [Phage-1527 (Peptide-92 library sequence, SEQ ID NO: 1823)]	1.57
LCAAGAAYPWPMCL [Phage-1520 (Peptide-92 library sequence, SEQ ID NO: 1816)]	1.59
LCAAGFNYPWPLCL [Phage-1530 (Peptide-92 library sequence, SEQ ID NO: 1826)]	1.57
WCAAGASYPWPWCL [Phage-1524 (Peptide-92 library sequence, SEQ ID NO: 1820)]	1.58
TCTAVFPYEWPRCL [Phage-1525 (Peptide-92 library sequence, SEQ ID NO: 1821)]	1.57
MCTAGATYPWPACL [Phage-1531 (Peptide-92 library sequence, SEQ ID NO: 1827)]	1.56
SCAAGATFHWPMCF [Phage-1526 (Peptide-92 library sequence, SEQ ID NO: 1822)]	1.57
SCAAGAPYPWPECL [Phage-1518 (Peptide-92 library sequence, SEQ ID NO: 1814)]	1.59
TCAAGATYPWPECM [Phage-1529 (Peptide-92 library sequence, SEQ ID NO: 1825)]	1.57
TCAAGAMWTWPECL [Phage-1528 (Peptide-92 library sequence, SEQ ID NO: 1824)]	1.57
TCSAGAAYAWPYCL [Phage-1519 (Peptide-92 library sequence, SEQ ID NO: 1815)]	1.59
SCAAGAQYGWPMCL [Phage-1523 (Peptide-92 library sequence, SEQ ID NO: 1819)]	1.59

What follows are binders tested against T3, Anti-CD28 Fab (SEQ ID NOs: 696, 697) (assay: phage binding ELISA; biotinylated anti-CD28 Fab on neutravidin plate, clonal phage detected with anti-M13-HRP;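 further: crude clonal phage supernatants added briefly to wells preincubated in blocking buffer with or without CD28 antigen, then washed before detection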).
T3 construct: Biotinylated and captured on neutravidin coated plates in the phage ELISA
T3 sequence (VH, as listed by the source, chain 1 of 2): as the sequence (VH, as listed by the source, chain 1 of 2) above
T3 sequence (VL, as listed by the source, chain 2 of 2): as the sequence (VL, as listed by the source, chain 2 of 2) above
Description: (§2) Clonal phage were harvested as crude supematants and screened via standard ELISAs. […] Prior to the addition of clonal phage, wells were incubated with blocking buffer and CD28 antigen or blocking buffer alone. Without washing or aspirating, clonal phage supematants were then added to the wells and incubated for a short time. Wells were then washed followed by detection of bound phage using a horse radish conjugated anti-M13 antibody. Clonal phage of interest were then sent for sequence analysis.

Binder	Anti-CD28 Fab signal (phage binding ELISA)
TCAAGAMYQWPECF (tested as crude phage supernatant) [Phage-1557]	1.48
SCSAGATYEWPYCF (tested as crude phage supernatant) [Phage-1560]	1.47
TCAAGVHFGWPLCF (tested as crude phage supernatant) [Phage-1554]	1.49
QCAAGAMWTWPVCF (tested as crude phage supernatant) [Phage-1550]	1.5
TCAAGATYTWPTCF (tested as crude phage supernatant) [Phage-1555]	1.48
TCAAGAHYTWPTCL (tested as crude phage supernatant) [Phage-1558]	1.47
ICAAGFIWSWPACF (tested as crude phage supernatant) [Phage-1548]	1.51
TCAAGATYSWPDCF (tested as crude phage supernatant) [Phage-1549]	1.51
NCSAGATWPWPMCF (tested as crude phage supernatant) [Phage-1553]	1.49
TCAAGASWEWPACL (tested as crude phage supernatant) [Phage-1556]	1.48
TCSAGATYKWPVCL (tested as crude phage supernatant) [Phage-1559]	1.47
TCAAGAHYLWPHCL (tested as crude phage supernatant) [Phage-1551]	1.5
SCAAGAHYKWPVCI (tested as crude phage supernatant) [Phage-1547]	1.51
PCAAGAMWAWPYCL (tested as crude phage supernatant) [Phage-1552]	1.49

Each binder was assayed against T2, Anti-CD28 Fab (SEQ ID NOs: 696, 697) (assay: phage binding ELISA on plate-captured anti-CD28 Fab pre-incubated with CD28 antigen (competitor: CD28)).
Description: as §1

Binder	Anti-CD28 Fab signal in the presence of CD28
SCAAGAMWPWPVCV [Phage-1522 (Peptide-92 library sequence, SEQ ID NO: 1818)]	0.07
SCAAGATYEWPICL [Phage-1521 (Peptide-92 library sequence, SEQ ID NO: 1817)]	0.05
TCSAGFSYKWPWCL [Phage-1527 (Peptide-92 library sequence, SEQ ID NO: 1823)]	0.06
LCAAGAAYPWPMCL [Phage-1520 (Peptide-92 library sequence, SEQ ID NO: 1816)]	0.06
LCAAGFNYPWPLCL [Phage-1530 (Peptide-92 library sequence, SEQ ID NO: 1826)]	0.05
WCAAGASYPWPWCL [Phage-1524 (Peptide-92 library sequence, SEQ ID NO: 1820)]	0.05
TCTAVFPYEWPRCL [Phage-1525 (Peptide-92 library sequence, SEQ ID NO: 1821)]	0.07
MCTAGATYPWPACL [Phage-1531 (Peptide-92 library sequence, SEQ ID NO: 1827)]	0.07
SCAAGATFHWPMCF [Phage-1526 (Peptide-92 library sequence, SEQ ID NO: 1822)]	0.09
SCAAGAPYPWPECL [Phage-1518 (Peptide-92 library sequence, SEQ ID NO: 1814)]	0.07
TCAAGATYPWPECM [Phage-1529 (Peptide-92 library sequence, SEQ ID NO: 1825)]	0.06
TCAAGAMWTWPECL [Phage-1528 (Peptide-92 library sequence, SEQ ID NO: 1824)]	0.07
TCSAGAAYAWPYCL [Phage-1519 (Peptide-92 library sequence, SEQ ID NO: 1815)]	0.07
SCAAGAQYGWPMCL [Phage-1523 (Peptide-92 library sequence, SEQ ID NO: 1819)]	0.05

What follows are binders tested against T3, Anti-CD28 Fab (SEQ ID NOs: 696, 697) (assay: phage binding ELISA on captured anti-CD28 Fab; competitor: CD28 antigen pre-incubated in the well;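 further: clonal phage supernatants added briefly to wells preblocked with or without CD28, bound phage detected through an HRP-linked anti-M13 antibody, wells with blocking buffer alone as comparison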).
Description: as §2

Binder	Anti-CD28 Fab signal in the presence of CD28 (phage binding ELISA)
TCAAGAMYQWPECF (tested as crude phage supernatant) [Phage-1557]	0.06
SCSAGATYEWPYCF (tested as crude phage supernatant) [Phage-1560]	0.06
TCAAGVHFGWPLCF (tested as crude phage supernatant) [Phage-1554]	0.07
QCAAGAMWTWPVCF (tested as crude phage supernatant) [Phage-1550]	0.07
TCAAGATYTWPTCF (tested as crude phage supernatant) [Phage-1555]	0.05
TCAAGAHYTWPTCL (tested as crude phage supernatant) [Phage-1558]	0.07
ICAAGFIWSWPACF (tested as crude phage supernatant) [Phage-1548]	0.08
TCAAGATYSWPDCF (tested as crude phage supernatant) [Phage-1549]	0.06
NCSAGATWPWPMCF (tested as crude phage supernatant) [Phage-1553]	0.1
TCAAGASWEWPACL (tested as crude phage supernatant) [Phage-1556]	0.08
TCSAGATYKWPVCL (tested as crude phage supernatant) [Phage-1559]	0.06
TCAAGAHYLWPHCL (tested as crude phage supernatant) [Phage-1551]	0.12
SCAAGAHYKWPVCI (tested as crude phage supernatant) [Phage-1547]	0.06
PCAAGAMWAWPYCL (tested as crude phage supernatant) [Phage-1552]	0.05

What follows are binders tested against Anti-CD28 Fab (SEQ ID NOs: 696, 697) (assay: phage binding ELISA; Fab-coated wells pre-incubated with CD28 antigen as competitor;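 further: clonal phage supernatants added to wells preincubated with CD28 antigen or blocking buffer only, bound phage detected with HRP-conjugated anti-M13 antibody, buffer-only wells as control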).
Target sequence in this assay (VH, as listed by the source, chain 1 of 2): as the sequence (VH, as listed by the source, chain 1 of 2) above
Target sequence in this assay (VL, as listed by the source, chain 2 of 2): as the sequence (VL, as listed by the source, chain 2 of 2) above
Description: as §1

Binder	Anti-CD28 Fab signal in the presence of CD28
SCAAGATWAWPACL [Phage-1598]	0.06
TCSAGAEYTWPLCF [Phage-1591]	0.08
TCSAGANWVWPLCL [Phage-1595]	0.07
SCAAGAAWGWPACF [Phage-1592]	0.09
TCSAGAAYEWPECF [Phage-1602]	0.06
TCSAGAGYPWPTCL [Phage-1600]	0.06
TCSAGALWEWPMCF [Phage-1603]	0.06
SCAAGATYGWPECF [Phage-1597]	0.07
SCSAFFHFHWPACL [Phage-1594]	0.06
TCAAGATWLWPVCL [Phage-1593]	0.08
TCSAGAAWTWPLCF [Phage-1601]	0.06
LCSAGAMWEWPLCL [Phage-1599]	0.07
TCSAGAHWVWPYCL [Phage-1596]	0.09

Each binder was assayed against T1, Anti-CD28 Fab (SEQ ID NOs: 696, 697) (assay: phage binding ELISA on captured anti-CD28 Fab; competitor CD28 antigen pre-incubated in the wells).
Description: as §1

Binder	Anti-CD28 Fab signal in the presence of CD28
SCAAGATYEWPRCL (peptide, not shown: large carriers) [Phage-1515]	0.07
TCAAGAHWIWPWCE (peptide, not shown: large carriers) [Phage-1513]	0.07
TCAAGAGWQWPMCF (peptide, not shown: large carriers) [Phage-1514]	0.11
GCAAGANYPWPLCL (peptide, not shown: large carriers) [Phage-1516]	0.05
TCAAGATWPWPSCL (peptide, not shown: large carriers) [Phage-1512]	0.08
TCAAGAYYAWPMCL (peptide, not shown: large carriers) [Phage-1517]	0.07
